Here are results for one protein from article PMC7847548, “Functional Characterization of the γ-Aminobutyric Acid Transporter from Mycobacterium smegmatis MC^2 155 Reveals Sodium-Driven GABA Transport” (Journal of Bacteriology, 2020).

This data set concerns the molecule itself. Nature of the data set: SEC-MALS; SEC-MALLS, three-detector method; Superose 6 column in 20 mM HEPES pH 7.0, 100 mM NaCl, 5% glycerol, 0.0102% DMNPG; 30 ul of MsGabP at 3 mg/ml injected; protein-detergent complex.

B1: γ-aminobutyric acid (GABA) permease GabP from Mycobacterium smegmatis MC^2 155 (natural protein, UniProt A0R5H8 1-473, looked up)
chain: MLESRSDLSSSDEPRSGLARSLKTRHMTMIAIGGAIGAGLFVGSGAVIKTAGPAAIVSYVVAGALVLCTLRMLGEMVVAKPRTGAFADYARIGIGPWAGFTLGWLYWYYYVIIIAVEAVAGAQILAVWVGLPLWLMAMLLMAALTLTNLISVRWFGEFEFWFSGIKVAAIVSFIVVGLLWVFGVWPGDTNGLTNLVAHGGFAPNGFGSIFGAVVVVIFAFGGAEIVTIAAAESAEPAKSVARATTGVIWRIILFYVGSIFLVVCILPWNDASVLSSPYVAALEKLQIPGAGLIMNIVILTAVLSVLNSSIYTSSRMLRVLASHGDAPQWLVRTNTRGVPTRAILASTVVGWVSVVLAYIAPDSLFLFLVNSCGVVAIFMYVMIGVSELRVRRAIEREDPAKLTLKMWFFPYLPIAVIACFVLVLVAMLFDADQRVQLLASVVSLAVVLLAYALRKRHGQVPATDTKQAARTDE
notes: GABA permease GabP, Mycobacterium smegmatis MC^2 155, gene msmeg_6196, amplified from genomic DNA and cloned NheI/SbfI into pL33 (based on pTTQ18); predicted molecular mass 50.7 kDa; pL33 encodes a C-terminal His tag preceded by an HRV-3C protease site; the tag was cleaved on the column, so residues of the cleavage site and of the cloning sites may remain; also called MsGabP; gene product of …
B1: the stoichiometry N (commonly a count of units in the complex or per binding partner) came to 2.
